The values that follow come from patent publication US20160075778A1 (Regeneron, published 2016).

B1: H4H10232P (antibody, V domains shown)
VH: QVQLVESGGGVVQPGRSLRLSCVASGFTFRNYDMHWVRQAPGKGLEWVAVTSSDGLNKFYSDSVKGRFTISRDNSKNTLSLQITGLRAEDTAVYYCAKESILAALFDYWGQGTLVTVSS
VL: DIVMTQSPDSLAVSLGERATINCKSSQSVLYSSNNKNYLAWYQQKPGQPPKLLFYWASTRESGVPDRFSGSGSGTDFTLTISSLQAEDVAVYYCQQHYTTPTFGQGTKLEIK
B2: H4H10238P (antibody, V domains shown)
VH: QVQLVESGGGVVQPGRSLRLSCAASGFTFSSYGMHWVRQAPVKGLEWVAFISNDKSNKYYADSLKGRFTISRDNSKNTLYLQMNSLTAEDTAVYYCAKESILAALFDYWGQGTLVTVSS
VL: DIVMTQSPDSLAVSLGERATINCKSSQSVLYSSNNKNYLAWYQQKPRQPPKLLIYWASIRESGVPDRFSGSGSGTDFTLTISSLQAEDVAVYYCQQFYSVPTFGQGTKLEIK
B3: H4H10236P (antibody, V domains shown)
VH: B2 VH with A40T, V42G, N53Y, K55G, S56N, L64V, Y80F, T87R
VL: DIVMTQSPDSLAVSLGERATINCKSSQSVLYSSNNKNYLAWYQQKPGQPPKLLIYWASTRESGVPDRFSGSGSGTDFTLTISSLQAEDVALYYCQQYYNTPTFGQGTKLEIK
B4: H4H10231P (antibody, V domains shown)
VH: B2 VH with S31T, Y32F, S56N, Y59F, L64V, K76R, N77D, A88P
VL: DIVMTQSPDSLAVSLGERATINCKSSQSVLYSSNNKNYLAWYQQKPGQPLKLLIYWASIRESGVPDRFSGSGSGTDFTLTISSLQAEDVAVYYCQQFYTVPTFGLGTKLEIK
B5: H4H10223P (antibody, V domains shown)
VH: B2 VH with S30N, S31T, K58T, Y59F, L64V, Y80F, Q82E
VL: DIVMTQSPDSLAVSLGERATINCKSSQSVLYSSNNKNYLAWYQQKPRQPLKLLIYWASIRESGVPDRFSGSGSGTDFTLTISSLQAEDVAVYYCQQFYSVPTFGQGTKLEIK
notes: Kappa light chain variable region
B6: H4H10237P (antibody, V domains shown)
VH: B2 VH with N53Y, K55G, L64V
VL: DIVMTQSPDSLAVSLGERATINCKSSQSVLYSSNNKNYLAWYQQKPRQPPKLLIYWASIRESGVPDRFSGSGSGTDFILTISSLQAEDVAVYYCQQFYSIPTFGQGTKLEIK
B7: H4H10250P (antibody, V domains shown)
VH: B2 VH with N53F, K55G, A61T, L64V, V93I
VL: DIVMTQSPDSLAVSLGERATINCKSSQSVLYSSNNKNYLAWYQQKPRQPPNLLIYWASIRESGVPDRFSGSGSGTDFTLTISSLQAEDVAFYYCQQFYSIPTFGQGTKLEIK
B8: H4H10256P (antibody, V domains shown)
VH: B2 VH with S30R, S31T, N53K, K55G, N57D, A61V, L64V, Y80F
VL: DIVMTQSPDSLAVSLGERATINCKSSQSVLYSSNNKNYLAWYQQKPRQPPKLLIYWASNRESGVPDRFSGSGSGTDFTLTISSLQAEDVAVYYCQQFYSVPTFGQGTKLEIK
B9: H4H10270P (antibody, V domains shown)
VH: B2 VH with L64V, Y108S
VL: B7 VL with N51K, T75A, E87A, F91V, I100V
B10: H1H059P (antibody, V domains shown)
VH: QVQLVESGGGVVQPGRSLRLSCAASGFAFSNYGMHWVRQAPGKGLEWVTFISYDGSNKYYADSVKGRFTISRDNSKNTLYLQVNSLRAEDTAVYYCAKEAVLAALFDYWGQGTLVTVSS
VL: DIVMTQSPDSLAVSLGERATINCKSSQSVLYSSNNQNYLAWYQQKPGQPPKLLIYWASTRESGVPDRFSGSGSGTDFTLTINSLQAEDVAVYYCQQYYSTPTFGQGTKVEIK
notes: The antibody was captured by an anti-human Fc antibody in SPR

Changes are numbered by the printed parent chain.

T1 sequence (peptide, as listed by the source): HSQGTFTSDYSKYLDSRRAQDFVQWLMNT

One assay concerns the target T1, human glucagon (human).
T1 construct: Bought peptide (Phoenix Pharmaceuticals, #028-02); 29 residue hormone; also called GCG; human GCG
The assay is described as follows: SPR Biacore 4000, antibody captured by anti-human Fc, GCG injected, 25 C. On the procedure: (§1) Experiments were performed at 25° C. and 37° C.
(§2) Kinetic association (kₐ) and dissociation (kd) rate constants were determined by processing and fitting the data to a 1:1 binding model using Scrubber 2.0c curve fitting software. Binding dissociation equilibrium constants (KD) and dissociative half-lives (t½) were calculated from the kinetic rate constants as: […]
(In general: In SPR one partner is held on a chip, and binding of the other changes the refractive index at the surface.)
With B1, the Kd (usually the free concentration of one partner at which half of the binding sites on the other are occupied at equilibrium, for simple one-to-one binding) worked out at 0.0724 nM; the koff (as a rule, the first-order rate constant of dissociation) came to 0.000231 s⁻¹; the kon (in general, a measure of how fast the partners come together) was 3.19e+06 M⁻¹ s⁻¹; the t½ (in general, the time needed for the level to fall by half in the phase considered) was 50 min.
The corresponding values for B2 are 0.16 nM, 0.00062 s⁻¹, 3.89e+06 M⁻¹ s⁻¹ and 19 min.
For B3 the same measures were 0.242 nM, 0.000746 s⁻¹, 3.08e+06 M⁻¹ s⁻¹ and 15 min.
B4 came in with a Kd of 0.0927 nM, a koff of 0.000685 s⁻¹, a kon of 7.39e+06 M⁻¹ s⁻¹ and a t½ of 17 min.
Take B5: the Kd stood at 0.0578 nM, the koff was 0.000541 s⁻¹, the kon turned out to be 9.36e+06 M⁻¹ s⁻¹ and the t½ amounted to 21 min.
The corresponding values for B6 are 0.208 nM, 0.00103 s⁻¹, 4.96e+06 M⁻¹ s⁻¹ and 11 min.
The corresponding values for B7 are 0.283 nM, 0.000939 s⁻¹, 3.32e+06 M⁻¹ s⁻¹ and 12 min.
B8 came in with a Kd of 0.0753 nM, a koff of 0.000582 s⁻¹, a kon of 7.72e+06 M⁻¹ s⁻¹ and a t½ of 20 min.
The corresponding values for B9 are 0.153 nM, 0.000732 s⁻¹, 4.8e+06 M⁻¹ s⁻¹ and 16 min.
For B10 the same measures were 0.715 nM, 0.00178 s⁻¹, 2.5e+06 M⁻¹ s⁻¹ and 6 min.

A further assay has as its target T1, human glucagon. The assay is described as follows: SPR Biacore 4000, antibody captured by anti-human Fc, GCG injected, 37 C. On the procedure:
as §1, §2
Turning to B1, the Kd came out at 0.318 nM, the koff was 0.00147 s⁻¹, the kon stood at 4.61e+06 M⁻¹ s⁻¹ and the t½ was 8 min.
Molecule B2 yielded a Kd of 0.555 nM, a koff of 0.00274 s⁻¹, a kon of 4.94e+06 M⁻¹ s⁻¹ and a t½ of 4 min.
For B3 the same measures were 2.08 nM, 0.0088 s⁻¹, 4.25e+06 M⁻¹ s⁻¹ and 1 min.
For B4 the same measures were 1.01 nM, 0.00245 s⁻¹, 2.4e+06 M⁻¹ s⁻¹ and 5 min.
The corresponding values for B5 are 0.347 nM, 0.00223 s⁻¹, 6.4e+06 M⁻¹ s⁻¹ and 5 min.
The molecule B6 displayed a Kd of 0.907 nM, a koff of 0.00683 s⁻¹, a kon of 7.53e+06 M⁻¹ s⁻¹ and a t½ of 2 min.
The corresponding values for B7 are 1.27 nM, 0.00708 s⁻¹, 5.58e+06 M⁻¹ s⁻¹ and 2 min.
Consider B8, for which the affinity, expressed as Kd, was 0.314 nM; the koff came out at 0.00248 s⁻¹; the kon turned out to be 7.9e+06 M⁻¹ s⁻¹; the t½ is 5 min.
The molecule B9 gave a Kd of 0.559 nM, a koff of 0.00378 s⁻¹, a kon of 6.77e+06 M⁻¹ s⁻¹ and a t½ of 3 min.
For B10 the same measures were 4.78 nM, 0.0236 s⁻¹, 4.9e+06 M⁻¹ s⁻¹ and 0.5 min.

For another assay, the target named is T1, human glucagon. The assay is described as follows: cell-based or functional assay.
As for B1, the “IC50, inhibition of GCG activation of HEK293/CRE-luc/hGCGR cells (luciferase reporter, 40 pM GCG)” value was found to be 2.3e-11 M.
On the same count and under the same terms, in the case of B2 it was 1.8e-11 M; in that of B3, 2.5e-10 M.
B4: the “IC50, inhibition of GCG activation of HEK293/CRE-luc/hGCGR cells (luciferase reporter, 40 pM GCG)” value stood at 7.3e-12 M.
On the same count and under the same terms, the value for B5 was 9.5e-12 M.
The same measure, in the same setting: in the case of B6 it was 3.4e-11 M; in that of B7, 3.4e-11 M; in that of B8, 1.8e-11 M.
Still for that read-out and setting: in the case of B9 it was 2.2e-11 M; in that of B10, 9.1e-10 M.
